# Key:
# Surface area calculation = experiment: Surface area calculation
# Description: A surface area calculation was also performed to determine the change in surface area between the conversion of BCA to BCA-Ac18 and BCA to BCA-Hex18. It was calculated that the reaction with acetic anhydride changed the surface area of BCA by 400 Å^2 and the reaction with hexanoic anhydride changed the surface area of BCA by 1180 Å^2. Since this change is a factor of 2.9, it can be concluded that this estimate that each modification with hexanoic anhydride adds three times the amount of surface area than modification with acetic anhydride is justified.
# BCA = target: T1, BCA (Bos taurus, UniProt P00921); experiment: Effect of DNSA present in the denaturing solution on rate of SDS denaturation; set-up: species or system bovine; details: DNSA present with the protein in the denaturing SDS solution
# T1 construct: purchased Sigma-Aldrich (St. Louis, Mo.)
# T1 sequence (P00921 whole entry): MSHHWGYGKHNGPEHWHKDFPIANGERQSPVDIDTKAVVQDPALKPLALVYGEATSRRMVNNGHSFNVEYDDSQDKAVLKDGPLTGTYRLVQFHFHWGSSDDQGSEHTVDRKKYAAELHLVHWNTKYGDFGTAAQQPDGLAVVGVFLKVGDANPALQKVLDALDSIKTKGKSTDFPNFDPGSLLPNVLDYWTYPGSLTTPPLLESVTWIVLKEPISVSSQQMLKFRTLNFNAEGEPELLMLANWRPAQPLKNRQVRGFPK
# Description: The kinetics of unfolding were determined as follows. The rates of denaturation of BCA and BCA-Ac18 were measured by incubating the protein (200 nM) in solutions of different concentrations of SDS. Immediately prior to the measurement, an aliquot of solution containing protein and SDS was mixed with a solution containing DNSA and the same concentration of SDS; this protocol minimized the possibility that DNSA might stabilize the native conformation of the protein, and influence the rate of its denaturation. When BCA was denatured in concentrations of SDS of 4 mM and higher, DNSA was added to the original, denaturing solution because the rate of denaturation was too fast to follow with manual mixing of aliquots of protein and DNSA. It was observed that DNSA, when present with the protein in the denaturing solution, reduced the rates of denaturation by factors of about 2-10.
factor by which rates of denaturation are reduced (BCA),Molecule,"ratio of surface area change, hexanoic vs acetic anhydride (Surface area calculation)"
–,BCA-Hex18: BCA with all 18 lysines modified with hexanoic anhydride,2.9
2-10,"CN(C)c1cccc2c(S(N)(=O)=O)cccc12 [DNSA, Dansyl amide]",–

# Reference: patent US20080113421A1, “Stabilizing proteins against denaturation and inactivation by charged detergents using chemical modifications, including modifications that increase net charge” (President and Fellows of Harvard College, priority 2006, published 2008)
